The text below walks through data of PMC6641210 (2019).

Read-outs that look alike come from different tables or passages of the source.

For test [1], the target named is rabbit chimera of human IgG1 25G1 (human 25G1 variable regions on rabbit IgG heavy chain and rabbit kappa K2 light chain constant regions) (rabbit (Oryctolagus cuniculus)). The test can be described thus: SPR; antibody (5.3 nM) captured by its kappa light chain on a Protein L sensor chip, FcγRIIIA ECD injected as analyte; Biacore X100, 25°C, HBS-EP+ (0.01 M HEPES pH 7.4, 0.15 M NaCl, 3 mM EDTA, 0.05% P20); five-point titration in triplicate, 1:1 Langmuir binding model (kinetic).

The target of test [2] is ADCC-enhanced human IgG1 25G1 with S239D/I332E (human). Briefly: SPR; Biacore X100, 25°C, HBS-EP+; antibody captured on a Protein L Sensor Chip, five-point titration of FcγRIIIA ECD in triplicate; steady-state affinity model. In general terms: SPR reads the build-up and loss of mass on a sensor chip optically.
Test [3] shares this target. Briefly: SPR; Biacore X100, 25°C, HBS-EP+ (0.01 M HEPES pH 7.4, 0.15 M NaCl, 3 mM EDTA, 0.05% P20); antibody (5.3 nM) captured by its kappa light chain on a Protein L Sensor Chip, FcγRIIIA ECD injected 30 s at 30 µl/min; five-point titration in triplicate; kinetic fit, 1:1 Langmuir binding model.
Test [4] has the same target. The test can be described thus: SPR.
Test [5] deals with chimeric rabbit IgG: variable regions of human 25G1 on rabbit IgG heavy and rabbit kappa (K2) light chain constant regions (human | rabbit (Oryctolagus cuniculus)). Briefly: SPR; Biacore X100, 25°C, HBS-EP+; antibody captured on a Protein L Sensor Chip, five-point titration of FcγRIIIA ECD in triplicate; steady-state affinity model.
Test [6] shares this target. The test can be described thus: SPR; Biacore X100, 25°C, HBS-EP+ (0.01 M HEPES pH 7.4, 0.15 M NaCl, 3 mM EDTA, 0.05% P20); antibody (5.3 nM) captured by its kappa light chain on a Protein L Sensor Chip, FcγRIIIA ECD injected 30 s at 30 µl/min; five-point titration in triplicate; kinetic fit, 1:1 Langmuir binding model.
Test [7] concerns the target T1, chimeric rabbit IgG: variable regions of human 25G1 on rabbit IgG heavy and rabbit kappa (K2) light chain constant regions (human | rabbit (Oryctolagus cuniculus)). The test can be described thus: SPR; Biacore X100, 25°C, HBS-EP+; antibody captured on a Protein L Sensor Chip, five-point titration of FcγRIIIA ECD in triplicate; steady-state affinity model. This is another data set of the same source.

Test [8] has as its target T2, human IgG1 anti-Tissue Factor antibody 25G1 with a kappa light chain (human). Described as above.
The target of test [9] is biotinylated rabbit IgG (Jackson 011-060-003) (rabbit). The test can be described thus: SPR; biotinylated rabbit IgG immobilised on a streptavidin Sensor Chip SA, titration of rabbit FcγRIIIA as analyte; steady-state affinity analysis, average of a triplicate.
Test [10] concerns the target ADCC-enhanced human IgG1 (25G1) with the S239D/I332E mutations (human). Briefly: SPR; antibody (5.3 nM) captured by its kappa light chain on a Protein L sensor chip, FcγRIIIA ECD injected as analyte; Biacore X100, 25°C, HBS-EP+ (0.01 M HEPES pH 7.4, 0.15 M NaCl, 3 mM EDTA, 0.05% P20); five-point titration in triplicate, 1:1 Langmuir binding model (kinetic).
Test [11] addresses human IgG1 antibody with a kappa light chain (human anti-Tissue Factor antibody 25G1) (human). Described as above.
Test [12] addresses rabbit chimera of human IgG1 25G1 (human 25G1 variable regions on rabbit IgG heavy chain and rabbit kappa K2 light chain constant regions) (rabbit (Oryctolagus cuniculus)). The description is as above. This is another data set of the same source.
In test [13] the target is T1, chimeric rabbit IgG: variable regions …. Briefly: SPR; Biacore X100, 25°C, HBS-EP+ (0.01 M HEPES pH 7.4, 0.15 M NaCl, 3 mM EDTA, 0.05% P20); antibody (5.3 nM) captured by its kappa light chain on a Protein L Sensor Chip, FcγRIIIA ECD injected 30 s at 30 µl/min; five-point titration in triplicate; kinetic fit, 1:1 Langmuir binding model. This is another data set of the same source.

Test [14] has as its target T2, human IgG1 anti-Tissue Factor antibody …. The description is as above.
Test [15] deals with ADCC-enhanced human IgG1 25G1 with S239D/I332E (human). The test can be described thus: SPR. This is another data set of the same source.
Test [16] concerns the target chimeric pig IgG1: variable regions of human 25G1 on pig IgG1 heavy and pig kappa light chain constant regions (human | pig (Sus scrofa)). Briefly: SPR; Biacore X100, 25°C, HBS-EP+; antibody captured on a Protein L Sensor Chip, five-point titration of FcγRIIIA ECD in triplicate; steady-state affinity model.
The target in test [17] is human IgG1 anti-Tissue Factor antibody 25G1 with a kappa light chain (human). Described as above. The source holds these as a separate data set.
In test [18] the target is ADCC-enhanced human IgG1 (25G1) with the S239D/I332E mutations (human). Briefly: SPR; antibody (5.3 nM) captured by its kappa light chain on a Protein L sensor chip, FcγRIIIA ECD injected as analyte; Biacore X100, 25°C, HBS-EP+ (0.01 M HEPES pH 7.4, 0.15 M NaCl, 3 mM EDTA, 0.05% P20); five-point titration in triplicate, 1:1 Langmuir binding model (kinetic). The source holds these as a separate data set.

Test [19] deals with human IgG1 antibody with a kappa light chain (human anti-Tissue Factor antibody 25G1) (human). The description is as above. This is another data set of the same source.
The target in test [20] is pig chimera of human IgG1 25G1 (human 25G1 variable regions on pig IgG1 heavy chain and pig kappa light chain constant regions) (pig (Sus scrofa)). The description is as above.
Test [21] has as its target chimeric pig IgG1: variable regions of human 25G1 on pig IgG1 heavy and pig kappa light chain constant regions (human | pig (Sus scrofa)). The test can be described thus: SPR; Biacore X100, 25°C, HBS-EP+ (0.01 M HEPES pH 7.4, 0.15 M NaCl, 3 mM EDTA, 0.05% P20); antibody (5.3 nM) captured by its kappa light chain on a Protein L Sensor Chip, FcγRIIIA ECD injected 30 s at 30 µl/min; five-point titration in triplicate; kinetic fit, 1:1 Langmuir binding model.

Test [22] deals with human IgG1 anti-Tissue Factor antibody 25G1 with a kappa light chain (human). Described as above. The source holds these as a separate data set.

As for “human FcγRIIIA extracellular domain fragment, low affinity F158 variant (from UniProt P08637 17-208) (receptor)”, the difference of kinetic KD between hIgG1 and rIgG in [1] came to 24%.
In the case of “rabbit FcγRIIIA extracellular domain fragment (receptor)”, in test [2], the Kd (as a rule, the constant that tells how readily two partners part at equilibrium) stood at 133 nM. Moreover, in test [3], the Kd amounted to 148 nM; the koff – broadly, the rate constant with which the complex falls apart – came to 0.27 s⁻¹; the kon – broadly, the rate constant with which the complex forms – came to 1.8e+06 M⁻¹ s⁻¹.
On to “human FcγRIIIA-V158 (high affinity allele) extracellular domain fragment (receptor)”, for which, in [4], the Kd came to 1.18 nM, the koff worked out at 0.01 s⁻¹ and the kon came out at 1.01e+07 M⁻¹ s⁻¹.
Consider “human FcγRIIIA-F158 (low affinity allele) extracellular domain fragment (receptor)”, for which the Kd in test [5] was found to be 792 nM. Besides, in test [3], the Kd turned out to be 4.6 nM, the koff turned out to be 0.05 s⁻¹ and the kon was determined as 1.16e+07 M⁻¹ s⁻¹. In [6], this molecule gave a Kd of 773 nM, a koff of 0.14 s⁻¹ and an association rate constant (kon) of 186000 M⁻¹ s⁻¹.

B1: rabbit FcγRIIIA extracellular domain fragment (receptor)
chain: RAADVPKALVLLDPPWASVLKDDHVTLKCQGLHPAGDNTTQWLHNGSLLSSQAPAYTITAARAEDGGEYRCQTGLSSLSDPVQLHVHLGWLVLQAPRWVFQEGEPIQLRCHSWKNNKLHKVTYLQNGRGLRYFHQNSDLHIPEATRNHSGSYFCRGLIGHHNMSSETVTITVQGPANPVISSSVLPWHQ
modifications: not checked
In the case of B1, the Kd in test [7] was 1990 nM; in test [8], 2170 nM; in test [9] it was 1320 nM; in [12], 2450 nM; in test [14], 2710 nM. Besides, the fold improvement of KD relative to hIgG1 in test [10] is over 10 fold. Further, in test [11], the fold reduction of affinity relative to hFcγRIIIA was 4 fold. The difference of kinetic KD between hIgG1 and rIgG in test [12] worked out at 10%. Also, the koff was determined as 0.34 s⁻¹ in test [13] and 0.33 s⁻¹ in [14]. The values for the on-rate (kon) in [13] and in test [14] were 140000 M⁻¹ s⁻¹ and 122000 M⁻¹ s⁻¹, respectively.

B2: pig FcγRIIIA extracellular domain fragment (receptor)
chain: HAEDPPKSVVILDPPWDRLLEKDSVTLKCQGAYPPRDDSTEWRWNGTLISNKASSYSITDATVGNSGEYTCKTGLSAQSDPLRLEVYKGWLLLQAPRWVVQEGESIRLRCHTWKNITIQKVQYFQNGMGKKFSHQNFEYHIPNATLKDGGSYFCRGIIKNYDLSSEPVKVTVQGSKSPSPILSFFLPWHQ
Regarding B2, the Kd in [15] amounted to 638 nM; in test [16], 3970 nM; in [5], 13200 nM; in [17] it was 14700 nM; in test [20], 4730 nM; in test [3], 726 nM. In addition, the Kd in test [6] was 10900 nM; in test [22] it was 8060 nM. For the same molecule, the fold deterioration of kd relative to hIgG1 in test [18] worked out at 7 fold. Also, the fold improvement of KD relative to hIgG1 in test [18] is over 10 fold. The fold reduction of affinity relative to hFcγRIIIA in test [19] was found to be 13 fold. Besides, the difference of kinetic KD between hIgG1 and rIgG in test [1] came to 30%. Further, the koff in test [3] stood at 0.35 s⁻¹; in test [21], 0.28 s⁻¹; in [6], 0.08 s⁻¹; in [22], 0.05 s⁻¹. Also, the kon came out at 480000 M⁻¹ s⁻¹ in [3], 59700 M⁻¹ s⁻¹ in test [21], 7110 M⁻¹ s⁻¹ in test [6] and 5920 M⁻¹ s⁻¹ in test [22].
